T1: P-selectin on thrombin-activated human platelets (human, UniProt P16109 42-830)
T1 construct: whole, on cells
T1 sequence (looked up): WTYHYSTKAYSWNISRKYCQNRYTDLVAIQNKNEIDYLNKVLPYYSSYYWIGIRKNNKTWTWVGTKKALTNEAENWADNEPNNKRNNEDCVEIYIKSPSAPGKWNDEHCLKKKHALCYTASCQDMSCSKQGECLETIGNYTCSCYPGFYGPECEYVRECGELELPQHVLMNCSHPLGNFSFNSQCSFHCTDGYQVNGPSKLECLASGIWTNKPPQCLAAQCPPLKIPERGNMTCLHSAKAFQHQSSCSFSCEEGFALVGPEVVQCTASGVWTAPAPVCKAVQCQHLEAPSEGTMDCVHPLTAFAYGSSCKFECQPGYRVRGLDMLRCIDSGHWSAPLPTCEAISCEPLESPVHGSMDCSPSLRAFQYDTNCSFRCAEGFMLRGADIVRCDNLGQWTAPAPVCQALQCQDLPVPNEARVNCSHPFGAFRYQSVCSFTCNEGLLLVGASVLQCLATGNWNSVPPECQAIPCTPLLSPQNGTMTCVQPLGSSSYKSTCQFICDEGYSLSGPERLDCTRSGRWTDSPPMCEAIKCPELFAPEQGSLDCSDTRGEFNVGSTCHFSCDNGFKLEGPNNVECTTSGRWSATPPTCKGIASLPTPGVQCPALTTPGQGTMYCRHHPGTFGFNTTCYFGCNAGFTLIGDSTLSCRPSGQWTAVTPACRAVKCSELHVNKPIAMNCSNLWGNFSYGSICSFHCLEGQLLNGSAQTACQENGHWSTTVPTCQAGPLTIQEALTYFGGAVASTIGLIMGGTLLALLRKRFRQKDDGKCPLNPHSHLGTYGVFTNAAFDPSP

T2: recombinant human P-selectin (R&D Systems) (human, UniProt P16109 42-771)
T2 construct: extracellular domain; also called recombinant soluble P-selectin; recombinant P-selectin
T2 sequence (looked up): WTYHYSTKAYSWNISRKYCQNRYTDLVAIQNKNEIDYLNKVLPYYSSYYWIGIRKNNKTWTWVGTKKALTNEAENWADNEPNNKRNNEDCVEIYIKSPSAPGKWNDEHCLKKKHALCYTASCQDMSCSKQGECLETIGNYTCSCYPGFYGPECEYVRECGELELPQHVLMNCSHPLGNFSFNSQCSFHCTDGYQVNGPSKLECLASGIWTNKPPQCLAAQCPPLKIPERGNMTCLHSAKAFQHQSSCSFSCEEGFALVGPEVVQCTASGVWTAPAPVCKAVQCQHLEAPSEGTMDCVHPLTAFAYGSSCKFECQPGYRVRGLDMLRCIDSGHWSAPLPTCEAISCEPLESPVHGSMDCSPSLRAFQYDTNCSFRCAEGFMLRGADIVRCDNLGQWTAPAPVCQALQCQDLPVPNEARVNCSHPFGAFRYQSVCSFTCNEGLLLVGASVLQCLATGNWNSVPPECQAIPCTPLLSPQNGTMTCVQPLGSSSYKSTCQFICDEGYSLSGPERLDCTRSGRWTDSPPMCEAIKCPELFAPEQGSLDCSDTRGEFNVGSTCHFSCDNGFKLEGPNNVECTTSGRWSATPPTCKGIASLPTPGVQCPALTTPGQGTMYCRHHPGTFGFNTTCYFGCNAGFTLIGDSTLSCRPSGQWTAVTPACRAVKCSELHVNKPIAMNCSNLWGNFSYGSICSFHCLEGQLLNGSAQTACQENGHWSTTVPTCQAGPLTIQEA


Legend:
[1] = molecular target: T1, P-selectin on thrombin-activated human …; experiment: ELISA on plate-coated thrombin-activated human platelets
Experimental: The ability of purified HuSZ51-DSPAalpha1 to bind specifically to human or dog thrombin-activated platelets in vitro was investigated by ELISA. 96-Well plates were coated with a 100 μl solution containing 1×10⁶ thrombin-activated human or dog platelets per well and incubated overnight at 4° C. The coated plates were washed once with washing solution (PBS, pH 7.4 plus 0.05% Tween-20), and then incubated with 200 μl blocking solution (5% milk prepared in PBS) per well at 37° C. for 2 hours. The blocked plates were washed 3 times with washing solution, and then incubated with 100 μl washing solution containing various amounts of HuSZ51-DSPAalpha1, SZ51, or human IgG1 for 1 hour at 37° C. The plates were washed 3 times with washing solution, and then incubated with peroxidase-conjugated protein L (Pierce) for 1 hour at 37° C. The plates were washed 4 times with washing solution, and then incubated with 100 μl of TMB/E substrate (ZYMED) for 5 minutes at room temperature. The perioxidase reactions were stopped by the addition of 100 μl 1 N HCl, and the plates were read for absorbance at 450 nm within 5 minutes.

[2] = molecular target: T2, recombinant human P-selectin (R&D …); experiment: recombinant soluble P-selectin (0-40 ng) after SDS-PAGE on nitrocellulose, detection with HRP goat anti-human Fc
Experimental: 1. Binding of HuSZ51-DSPAalpha1 to P-selectin on a nitrocellulose membrane. The indicated amounts of recombinant soluble P-selectin (R&D systems), 0, 5, 10, 20, or 40 ng, along with 10 ng of human IgG1, were separated on SDS-PAGE gels and then transferred onto nitrocellulose membranes. One membrane was incubated with HuSZ51, and the second was incubated with HuSZ51-DSPAalpha1. After washing, bound HuSZ51 or HuSZ51-DSPAalpha1 was detected by HRP-conjugated goat anti-human Fc. The intensity of human IgG1 lane, which is also detected by HRP-conjugated goat anti-human Fc was used as a normalization control.

| binding result [1] | binding result [2] | Binder |
| --- | --- | --- |
| binds |  | SZ51, murine anti-P-selectin monoclonal antibody (antibody, V domains shown, Variable region DNA in GenBank gi:4099282 (heavy) and gi:4099284 (light); also called parental monoclonal antibody SZ51; anti-P-selectin mouse monoclonal antibody) VH: QVQLLESGPELKKPGETVKISCKASGYTFTNYGMNWVKQAPGKGLKWMGWINTYTGEPIYADDFKGRFAFSLETSASTAHLQINSLKNEDMATYFCARGRGGNAMDYWGQGTSVTVSS VL: ELQMTQSPSSLSASVGDRVTISCSASQDISNYLNWYQQKPDGPVKLLIYYTTSNLHSGVPSRFSGSGSGTDYSLTISNLEPEDIATYYCQQYNKVPWTFGGGTKLEIKR |
|  | binds | HuSZ51, chimeric mouse-human anti-P-selectin monoclonal antibody (antibody, human IgG1, V domains shown) VH: QVQLLESGPELKKPGETVKISCKASGYTFTNYGMNWVKQAPGKGLKWMGWINTYTGEPIYADDFKGRFAFSLETSASTAHLQINSLKNEDMATYFCARGRGGNAMDYWGQGTSVTVSS VL: ELQMTQSPSSLSASVGDRVTISCSASQDISNYLNWYQQKPDGPVKLLIYYTTSNLHSGVPSRFSGSGSGTDYSLTISNLEPEDIATYYCQQYNKVPWTFGGGTKLEIKR |
